Results: patent publication US20230140797A1 (published 2023)
Numbering of substitutions follows the chain as printed. Read-outs that look alike come from different tables or passages of the source.

Legend:
[1] = target: T1, human FcγRIIa type R extracellular domain with C-terminal His tag (human, UniProt P12318 34-217); test: Biacore SPR
T1 sequence (looked up): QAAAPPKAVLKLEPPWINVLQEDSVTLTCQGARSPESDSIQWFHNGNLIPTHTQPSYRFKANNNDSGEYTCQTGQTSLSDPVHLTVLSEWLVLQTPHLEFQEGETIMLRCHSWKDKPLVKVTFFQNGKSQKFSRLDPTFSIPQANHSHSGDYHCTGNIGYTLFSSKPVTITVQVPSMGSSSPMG

[2] = target: T2, human FcγRIIb extracellular domain with C-terminal His tag (human, UniProt P31994 43-217); test: Biacore SPR
T2 sequence (looked up): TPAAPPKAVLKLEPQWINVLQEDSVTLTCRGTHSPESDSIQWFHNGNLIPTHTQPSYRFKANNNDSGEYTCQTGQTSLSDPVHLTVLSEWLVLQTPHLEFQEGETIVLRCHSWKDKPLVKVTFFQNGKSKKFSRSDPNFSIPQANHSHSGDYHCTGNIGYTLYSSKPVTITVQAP

[3] = target: human IgA (hIgA) (human); test: Biacore T200 SPR
[4] = target: human FcγRIa extracellular domain with C-terminal His tag (human, UniProt P12314 16-292); test: SPR
Sequence of human FcγRIa extracellular domain with C-terminal His tag (P12314 16-292): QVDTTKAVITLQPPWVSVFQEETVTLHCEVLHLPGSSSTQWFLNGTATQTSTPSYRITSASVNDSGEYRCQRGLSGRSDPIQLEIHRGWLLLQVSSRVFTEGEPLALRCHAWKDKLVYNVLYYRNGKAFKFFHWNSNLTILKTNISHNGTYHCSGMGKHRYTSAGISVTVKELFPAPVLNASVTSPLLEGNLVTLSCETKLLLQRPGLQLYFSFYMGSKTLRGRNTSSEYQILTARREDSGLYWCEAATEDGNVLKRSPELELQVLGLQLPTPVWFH

[5] = target: T3, human FcγRIIb extracellular domain with C-terminal His tag (human, UniProt P31994 43-217); test: SPR
T3 sequence (looked up): T2 sequence (looked up)

[6] = target: T3, human FcγRIIb extracellular domain with …; test: ratio of SPR KD values
[7] = target: human FcγRIIIa type V extracellular domain with C-terminal His tag (human, UniProt P08637 17-208); test: SPR
Target sequence in this assay (P08637 17-208 F176V): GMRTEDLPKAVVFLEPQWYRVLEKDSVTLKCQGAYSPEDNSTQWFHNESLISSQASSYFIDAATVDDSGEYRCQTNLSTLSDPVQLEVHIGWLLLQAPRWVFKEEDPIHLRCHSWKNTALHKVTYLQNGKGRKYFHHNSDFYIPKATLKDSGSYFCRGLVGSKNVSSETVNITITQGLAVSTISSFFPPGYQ

[8] = target: T4, human FcγRIIa type H extracellular domain with C-terminal His tag (human, UniProt P12318 34-217); test: SPR
T4 sequence (looked up): T1 sequence (looked up) with R134H

[9] = target: T5, human FcγRIIb extracellular domain with C-terminal His tag (human, UniProt P31994 43-217); test: SPR; remark: listed apart in the source
T5 sequence (looked up): T2 sequence (looked up)

[10] = target: T6, human FcγRIIa type R extracellular domain with C-terminal His tag (human, UniProt P12318 34-217); test: SPR
T6 sequence (looked up): T1 sequence (looked up)

[11] = target: T5, human FcγRIIb extracellular domain with …; test: SPR; remark: listed apart in the source
[12] = target: T5, human FcγRIIb extracellular domain with …; test: SPR; remark: listed apart in the source
[13] = target: T7, human FcγRIIIa type V extracellular domain with C-terminal His tag (human, UniProt P08637 17-208); test: SPR; remark: listed apart in the source
T7 sequence (P08637 17-208 F176V): as above

[14] = target: T8, human FcγRIIb extracellular domain with C-terminal His tag (human, UniProt P31994 43-217); test: SPR Biacore, ratio of KDs
T8 sequence (looked up): T2 sequence (looked up)

[15] = target: T9, human FcγRIIa type H extracellular domain with C-terminal His tag (human, UniProt P12318 34-217); test: SPR Biacore, KD by Equation 2
T9 sequence (looked up): T1 sequence (looked up) with R134H

[16] = target: T5, human FcγRIIb extracellular domain with …; test: SPR; remark: listed apart in the source
[17] = target: T7, human FcγRIIIa type V extracellular …; test: SPR; remark: listed apart in the source
[18] = target: T10, human FcγRIIa type H (131His) extracellular domain with C-terminal His tag (human, UniProt P12318 34-217); test: SPR
T10 sequence (looked up): T1 sequence (looked up) with R134H

[19] = target: T11, human FcγRIIa type R (131Arg) extracellular domain with C-terminal His tag (human, UniProt P12318 34-217); test: SPR
T11 sequence (looked up): T1 sequence (looked up)

[20] = target: T11, human FcγRIIa type R (131Arg) …; test: ratio of SPR KDs
[21] = target: T12, human FcγRIIa type H extracellular domain with C-terminal His tag (human, UniProt P12318 34-217); test: SPR; remark: listed apart in the source
T12 sequence (looked up): T1 sequence (looked up) with R134H

[22] = target: T13, human FcγRIIa type R extracellular domain with C-terminal His tag (human, UniProt P12318 34-217); test: SPR Biacore, kinetic fit
T13 sequence (looked up): T1 sequence (looked up)

B1: IL6R-BP478/IL6R-L (antibody)
heavy: QVQLQESGPGLVKPSETLSLTCAVSGHSISHDHAWSWVRQPPGEGLEWIGFISYSGITNYNPSLQGRVTISRDNSKNTLYLQMNSLRAEDTAVYYCARSLARTTAMDYWGEGTLVTVSSASTKGPSVFPLAPCSRSTSESTAALGCLVKDYFPEPVTVSWNSGALTSGVHTFPAVLQSSGLYSLSSVVTVPSSSLGTKTYTCNVDHKPSNTKVDKRVESKYGPPCPPCPAPDLLGDDSVFLFPPKPKDTLMISRTPEVTCVVVDVSDEDGEVKFNWYVDGVEVHNAKTKPREEQDNSTYRVVSVLTVLHQDWLNGKEYKCKVSNKALPRPIEKTISKAKGQPREPQVYTLPPSRDELTKNQVSLTCLVKGFYPSDIAVEWESNGQPENNYKTTPPVLDSDGSFFLYSKLTVDKSRWQQGNVFSCSVMHEALHNHYTQESLSLSP
light: not shown
fold binding against IL6R-BP230/IL6R-L [1]: 0.9 times
fold binding against IL6R-BP230/IL6R-L [2]: 1.1 times

B2: GA2-IgG1 (antibody, V domains shown)
VH: QVQLVQSGAEVKKPGSSVKVSCKASGGTFSSYAISWVRQAPGQGLEWMGGIIPIFGTANYAQKFQGRVTITADESTSTAYMELSSLRSEDTAVYYCARPRWETAISSDAFDIWGQGTMVTVSS
VL: DIQMTQSPSSLSASVGDRVTITCRASQSISDDLNWYQQKPGKAPKLLIYEASNLQSGVPSRFSGSGSGTDFTLTISSLQPEDFATYYCQQHSSSPLTFGQGTKVEIKR
Ca-dependent hIgA-binding activity (fold) [3]: 100 times

B3: IL6R-BP199/IL6R-L (antibody, human IgG1, kappa)
heavy: QVQLQESGPGLVKPSETLSLTCAVSGHSISHDHAWSWVRQPPGEGLEWIGFISYSGITNYNPSLQGRVTISRDNSKNTLYLQMNSLRAEDTAVYYCARSLARTTAMDYWGEGTLVTVSSASTKGPSVFPLAPSSKSTSGGTAALGCLVKDYFPEPVTVSWNSGALTSGVHTFPAVLQSSGLYSLSSVVTVPSSSLGTQTYICNVNHKPSNTKVDKKVEPKSCDKTHTCPPCPAPDLLGGDSVFLFPPKPKDTLMISRTPEVTCVVVDVSHEDPEVKFNWYVDGVEVHNAKTKPREEQYNSTYRVVSVLTVLHQDWLNGKEYKCKVSNAALPRPIEKTISKAKGQPREPQVYTLPPSRDELTKNQVSLTCLVKGFYPSDIAVEWESNGQPENNYKTTPPVLDSDGSFFLYSKLTVDKSRWQQGNVFSCSVMHEALHNHYTQESLSLSP
light: not shown
Kd [4]: 6.4 nM
Kd [5]: 490 nM
KD (IIb) of the parent polypeptide/KD (IIb) of the altered polypeptide [6]: 6.3 fold
Kd [7]: 61000 nM
Kd [8]: 28000 nM

B4: IL6R-BP559/IL6R-L (antibody, human IgG1, kappa)
heavy: B3 heavy with D235E, V266I, S269A, H270E, P273G, E274D, Y298D, A328K, R332A
light: not shown
KD (IIaR)/KD (IIb) [9]: 58.4
Kd [10]: 16 nM
KD (IIaH)/KD (IIb) [11]: 712

B5: BP505 (antibody, human IgG1, kappa)
heavy: B3 heavy with G239D, V266I, S269A, H270E, P273G, E274D, A328K, R332A
light: not shown
KD (IIaR)/KD (IIb) [9]: 20
Kd [12]: 2100 nM
KD (IIaH)/KD (IIb) [11]: 514

B6: IL6R-BP253/IL6R-L (antibody, human IgG1, kappa)
heavy: B3 heavy with D235E, D240P, S269E, A328K, L330F, R332A
light: not shown
Kd [13]: 3800 nM

B7: IL6R-2B171/IL6R-L (antibody, human IgG1, kappa)
heavy: B3 heavy with D235E, V325L, A328K, R332A
light: not shown
KD (IIb) of the parent polypeptide/KD (IIb) of the altered polypeptide [14]: 2.9 fold (parent IL6R-B3/IL6R-L)
Kd [15]: 340000 nM

B8: IL6R-BP538/IL6R-L (antibody, human IgG1, kappa)
heavy: B3 heavy with D235E, G239D, V266I, H270E, P273G, A328K
light: not shown
KD (IIaR)/KD (IIb) [9]: 30.6
KD (IIb) of parent polypeptide/KD (IIb) of altered polypeptide [16]: 507
KD (IIaH)/KD (IIb) [11]: 566

B9: BP564 (antibody, human IgG1, kappa)
heavy: B3 heavy with D235E, G239D, H270E, P273G, E274D, Y298D, A328K
light: not shown
KD (IIaR)/KD (IIb) [9]: 26.2
Kd [12]: 2.2 nM
KD (IIaH)/KD (IIb) [11]: 454

B10: IL6R-BP497/IL6R-L (antibody, human IgG1, kappa)
heavy: B3 heavy with G239D, V266I, S269A, H270E, P273G, A328K, A329G
light: not shown
Kd [17]: 20000 nM
Kd [18]: 850 nM
Kd [19]: 35 nM
KD (IIaR) of parent polypeptide/KD (IIaR) of altered polypeptide [20]: 12.9

B11: IL6R-BP540/IL6R-L (antibody, human IgG1, kappa)
heavy: B3 heavy with D235E, G239D, V266I, H270E, P273G, E274P, Y298D, A328K
light: not shown
KD (IIaR)/KD (IIb) [9]: 36.8
Kd [21]: 4800 nM
KD (IIaH)/KD (IIb) [11]: 803

B12: IL6R-BP119/IL6R-L (antibody, human IgG1, kappa)
heavy: B3 heavy with D235E, A328M, R332A
light: not shown
Kd [22]: 99 nM
KD (IIb) of the parent polypeptide/KD (IIb) of the altered polypeptide [14]: 2.7 fold (parent IL6R-B3/IL6R-L)

B13: IL6R-BP107/IL6R-L (antibody, human IgG1, kappa)
heavy: B3 heavy with D235E, H270E, A328K, R332A
light: not shown
KD (IIb) of the parent polypeptide/KD (IIb) of the altered polypeptide [14]: 3.3 fold (parent IL6R-B3/IL6R-L)
Kd [15]: 32000 nM

B14: IL6R-BP120/IL6R-L (antibody, human IgG1, kappa)
heavy: B3 heavy with D235E, A328E, R332A
light: not shown
Kd [22]: 5600 nM
KD (IIb) of the parent polypeptide/KD (IIb) of the altered polypeptide [14]: 3 fold (parent IL6R-B3/IL6R-L)
